Biological target: T1, Gal4 DNA binding domain (DBD)-AR LBD chimeric protein (UniProt P10275 669-920)
T1 construct: also called Gal4-AR LBD; Gal4-DBD fused to the AR LBD; source: in cells (two-hybrid) and in lysate (co-IP)
T1 sequence (looked up): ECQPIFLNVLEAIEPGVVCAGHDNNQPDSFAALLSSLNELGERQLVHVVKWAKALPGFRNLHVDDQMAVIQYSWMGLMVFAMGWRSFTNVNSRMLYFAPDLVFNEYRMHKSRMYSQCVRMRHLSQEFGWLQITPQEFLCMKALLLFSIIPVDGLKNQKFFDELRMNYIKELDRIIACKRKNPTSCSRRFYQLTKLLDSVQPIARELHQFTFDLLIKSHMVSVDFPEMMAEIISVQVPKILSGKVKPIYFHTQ
Test: two-hybrid; mammalian two-hybrid in 293T cells, Gal4-tk-luc reporter, 10 nM DHT, with FKBP52 overexpressed
Settings: partners not purified

fold enhancement of the two-hybrid signal by overexpressed FKBP52: 4.5 fold
B1: VP16-AD fused to the full-length β-catenin (natural protein, UniProt P35222 1-781, looked up)
chain: MATQADLMELDMAMEPDRKAAVSHWQQQSYLDSGIHSGATTTAPSLSGKGNPEEEDVDTSQVLYEWEQGFSQSFTQEQVADIDGQYAMTRAQRVRAAMFPETLDEGMQIPSTQFDAAHPTNVQRLAEPSQMLKHAVVNLINYQDDAELATRAIPELTKLLNDEDQVVVNKAAVMVHQLSKKEASRHAIMRSPQMVSAIVRTMQNTNDVETARCTAGTLHNLSHHREGLLAIFKSGGIPALVKMLGSPVDSVLFYAITTLHNLLLHQEGAKMAVRLAGGLQKMVALLNKTNVKFLAITTDCLQILAYGNQESKLIILASGGPQALVNIMRTYTYEKLLWTTSRVLKVLSVCSSNKPAIVEAGGMQALGLHLTDPSQRLVQNCLWTLRNLSDAATKQEGMEGLLGTLVQLLGSDDINVVTCAAGILSNLTCNNYKNKMMVCQVGGIEALVRTVLRAGDREDITEPAICALRHLTSRHQEAEMAQNAVRLHYGLPVVVKLLHPPSHWPLIKATVGLIRNLALCPANHAPLREQGAIPRLVQLLVRAHQDTQRRTSMGGTQQQFVEGVRMEEIVEGCTGALHILARDVHNRIVIRGLNTIPLFVQLLYSPIENIQRVAAGVLCELAQDKEAAEAIEAEGATAPLTELLHSRNEGVATYAAAVLFRMSEDKPQDYKKRLSVELTSSLFRTEPMAWNETADLGLDIGAQGEPLGYRQDDPSYRSFHSGGYGQDALGMDPMMEHEMGGHHPGADYPVDGLPDLGHAQDLMDGLPPGDSNQLAWFDTDL
notes: β-catenin, full length; NheI-XbaI fragment of pCI-neo-β-catenin inserted into the pACT vector (Promega); also called Vp16-β-catenin; VP16-β-catenin
